The values below are quoted from earlier work in paper PMC6435036 (Molecular pharmaceutics, 2017).

For this series the following is noted: in humans.

Take “ApoA-I: endogenous apolipoprotein A-I, main protein of HDL”: the “half-life of endogenous ApoA-I protein” value is 79.2 h.
